# Measurements: PMC9473612
# Target: EB1-mScarlet (UniProt Q9XZ57)
# Test: co-immunoprecipitation (mNeongreen-trap) with immunoblot quantification
# Conditions: S2 cells overexpressing the constructs; n = 3 independent replicates; parent: est. 100; read off a plot
# Sequence of UniProt Q9XZ57 (Q9XZ57 entry or part of it): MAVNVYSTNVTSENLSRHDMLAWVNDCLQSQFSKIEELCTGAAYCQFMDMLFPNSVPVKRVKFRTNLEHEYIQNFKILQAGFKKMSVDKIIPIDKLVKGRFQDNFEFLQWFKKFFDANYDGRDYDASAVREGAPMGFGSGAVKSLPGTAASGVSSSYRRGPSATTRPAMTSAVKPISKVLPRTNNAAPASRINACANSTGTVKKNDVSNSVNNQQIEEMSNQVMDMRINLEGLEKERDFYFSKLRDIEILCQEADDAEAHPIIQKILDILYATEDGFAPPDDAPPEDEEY
row,percent of parent (% relative to WT),Substance
1,78,"mNeongreen RhoGEF2 (1–619), wild type SKIP→SKNN (I→N; P→N in the SxIP motif; residue numbers not printed)"
2,56,"mNeongreen RhoGEF2 (1–619), wild type 7E (seven serines proximal to the SKIP motif changed to E; residue numbers not printed)"
3,76,"mNeongreen RhoGEF2 (1–619), wild type 7A (seven serines proximal to the SKIP motif changed to A; residue numbers not printed)"
